Conditions in all cases: both partners purified
For assay [1], the target named is T1, SARS-CoV-2 S protein (ECD, His and Flag Tag) (GenScript) (SARS-CoV-2, wild type (Wuhan-Hu-1 …, UniProt P0DTC2)).
T1 construct: source: bought: GenScript
Description: SPR.

Assay [2] concerns the target NTD + RBD (aa 13–541) of the SARS-CoV-2 S protein (SARS-CoV-2, wild type (Wuhan-Hu-1 …, UniProt P0DTC2)). Nature of the assay: ELISA. For orientation: ELISA stands for enzyme-linked immunosorbent assay.
Assay [3] concerns the target T2, S1 (aa 13–685) of the SARS-CoV-2 S protein (SARS-CoV-2, wild type (Wuhan-Hu-1 …, UniProt P0DTC2)).
T2 construct: also called subunit 1
Nature of the assay: ELISA.

Assay [4] has as its target T3, recombinant S ECD protein (aa 13–1208) of SARS-CoV-2 (SARS-CoV-2, UniProt P0DTC2).
T3 construct: also called S protein; extracellular domain of the S protein
Nature of the assay: ELISA.

B1: NIBIC-71 (antibody, V domains shown)
VH: EVQLVESGGGLIQPGGSLRLSCEASGLIVSSNYMTWVRQAPGKGLEWVSVIYSGGSTFYADSVKGRFTVSRDNSKNTLYLQMNNLSPEDTAVYYCARDLGPYGVDVWGQGTTVTVSS
VL: AIQLTQSPSSLSASVGDRVTITCRASQGISSYLAWYQQTPGKAPKLLIYAASTLQSGVPSRFSGSGSGTDFTLTISSLQPEDFATYYCQQLNSYPPFTFGPGTKVDIK
notes: also called recombinant mAb NIBIC-71
One may read the Kd as the free concentration of one partner at which half of the binding sites on the other are occupied at equilibrium, for simple one-to-one binding. What is called koff is a measure of how fast the partners let go of each other. High values mean fast dissociation, low ones slow dissociation. The term kon denotes the rate constant with which the complex forms. In assay [1], B1 registered a Kd of 1.33 nM, a koff of 6.35e-05 s⁻¹ and an association rate constant (kon) of 47700 M⁻¹ s⁻¹.

B2: 7G7/κ (antibody, V domains shown)
VH: QVQLVESGGGVVQPGRSLRLSCIASGFTFRNYAMYWVRQAPGKGLEWVAVIWYDGSNKFYTDSVKGRFTISRDNSKNSLYLQMNSLRAEDTAVYFCARDQGFGDNYYYYGMDVWGQGTTVTVSS
VL: SYELTQPPSVSVSPGQTARISCSGDALPKEYAYWYQQKPGQAPVLVIYKDSERPSGIPERFSGSSSGTTVTLTISGVQAEDEADYYCQLADSSMHYVVFGGGTKLTVL
notes: also called 7G7-IgG1κ; 7G7/κ (IgG1/Igκ); source: Expi293F, cotransfected with IgH and IgL vectors, purified (HiTrap Protein G)
With B2, the binding result in assay [2], in assay [3] and in assay [4] was “binds” in each case.

B3: 7G7/λ (antibody, V domains shown)
VH: B2 VH
VL: B2 VL
notes: also called 7G7 (7G7/λ); IgG1/Igλ2; source: Expi293F, cotransfected with IgH and IgL vectors, purified (HiTrap Protein G)
Regarding B3, in assay [4], the binding result is reported as “binds”.

For the origin of these results see PMC9684487, “Human antibody recognition and neutralization mode on the NTD and RBD domains of SARS-CoV-2 spike protein” (Scientific Reports, 2022).
